Assay results: patent US20250313626A1 (HARBOUR BIOMED SHANGHAI, published 2025)
Positions count from the first letter of the chain named. Names may count otherwise. Like-named read-outs stand apart in the source and are kept apart here.

T1: human CD200R1 isoform a on CHOK1 cells (CHOK1/hCD200R1a) (human, UniProt Q8TD46 25-348)
T1 construct: also called CHOK1/CD200R1a
T1 sequence: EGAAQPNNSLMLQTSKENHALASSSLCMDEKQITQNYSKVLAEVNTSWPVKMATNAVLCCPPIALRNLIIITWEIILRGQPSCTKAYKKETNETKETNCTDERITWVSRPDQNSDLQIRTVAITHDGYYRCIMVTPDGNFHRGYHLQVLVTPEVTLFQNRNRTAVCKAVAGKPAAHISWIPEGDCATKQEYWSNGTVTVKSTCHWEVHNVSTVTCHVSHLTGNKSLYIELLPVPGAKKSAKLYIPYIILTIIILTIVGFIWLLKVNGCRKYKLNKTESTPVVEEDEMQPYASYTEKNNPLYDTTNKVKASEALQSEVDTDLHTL

T2: CD200R1a on PathHunter Jurkat CD200R1a signaling cells (Eurofins DiscoverX, 93-1136C19) (human, UniProt Q8TD46 25-348)
T2 sequence: T1 sequence

T3: Cynomolgus macaques CD200R1 isoform a on CHOK1 cells (CHOK1/cynoCD200R1a) (Cynomolgus macaques)
T3 chain: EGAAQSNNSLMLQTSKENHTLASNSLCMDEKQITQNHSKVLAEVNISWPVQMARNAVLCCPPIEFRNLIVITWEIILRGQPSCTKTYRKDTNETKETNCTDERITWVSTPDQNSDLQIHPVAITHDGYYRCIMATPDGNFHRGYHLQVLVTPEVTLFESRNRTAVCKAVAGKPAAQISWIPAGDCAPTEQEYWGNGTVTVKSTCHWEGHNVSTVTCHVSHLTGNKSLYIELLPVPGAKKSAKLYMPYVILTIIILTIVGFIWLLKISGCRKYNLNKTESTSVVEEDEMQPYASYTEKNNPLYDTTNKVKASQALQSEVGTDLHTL

T4: human CD200R1a protein (soluble recombinant) (human, UniProt Q8TD46 29-265)
T4 construct: Soluble protein used in BLI; also called human CD200R1 isoform a; not shown: His tag implied by capture on anti-Penta-HIS biosensors
T4 sequence: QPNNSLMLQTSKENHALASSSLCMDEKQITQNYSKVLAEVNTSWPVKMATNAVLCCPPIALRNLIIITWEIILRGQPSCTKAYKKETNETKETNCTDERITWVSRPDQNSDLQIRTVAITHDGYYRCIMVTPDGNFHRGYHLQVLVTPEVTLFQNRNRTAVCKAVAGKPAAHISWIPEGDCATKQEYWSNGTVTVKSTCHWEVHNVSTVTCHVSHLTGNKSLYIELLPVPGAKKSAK

B1: PR006895 (antibody, human IgG1, kappa)
heavy: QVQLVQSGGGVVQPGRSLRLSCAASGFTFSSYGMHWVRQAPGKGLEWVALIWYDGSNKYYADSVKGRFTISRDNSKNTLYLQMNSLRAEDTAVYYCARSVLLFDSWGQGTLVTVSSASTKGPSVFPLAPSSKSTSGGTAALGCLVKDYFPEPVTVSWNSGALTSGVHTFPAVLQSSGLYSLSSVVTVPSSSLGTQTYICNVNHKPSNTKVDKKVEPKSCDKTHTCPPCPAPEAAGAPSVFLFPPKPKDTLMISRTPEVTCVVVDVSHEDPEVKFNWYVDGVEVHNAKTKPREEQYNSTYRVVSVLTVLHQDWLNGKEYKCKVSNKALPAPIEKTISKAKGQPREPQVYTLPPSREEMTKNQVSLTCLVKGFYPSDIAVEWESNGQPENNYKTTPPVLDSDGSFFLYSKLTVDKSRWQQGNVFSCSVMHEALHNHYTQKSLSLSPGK
light: DIQMTQSPPSLSASVGDRVTITCRASQSISSYLNWFQQKAGKAPKLLISATSNLQSGVPSRFSGSGSGTDFTLTISSLQPEDLATYYCQQSYSSPYTFGQGTKVEIKRTVAAPSVFIFPPSDEQLKSGTASVVCLLNNFYPREAKVQWKVDNALQSGNSQESVTEQDSKDSTYSLSSTLTLSKADYEKHKVYACEVTHQGLSSPVTKSFNRGEC
notes: Fc variant of PR006480: human IgG1 with L234A, L235A, G237A (EU)
B2: PR007442 (antibody, human IgG1, kappa)
heavy: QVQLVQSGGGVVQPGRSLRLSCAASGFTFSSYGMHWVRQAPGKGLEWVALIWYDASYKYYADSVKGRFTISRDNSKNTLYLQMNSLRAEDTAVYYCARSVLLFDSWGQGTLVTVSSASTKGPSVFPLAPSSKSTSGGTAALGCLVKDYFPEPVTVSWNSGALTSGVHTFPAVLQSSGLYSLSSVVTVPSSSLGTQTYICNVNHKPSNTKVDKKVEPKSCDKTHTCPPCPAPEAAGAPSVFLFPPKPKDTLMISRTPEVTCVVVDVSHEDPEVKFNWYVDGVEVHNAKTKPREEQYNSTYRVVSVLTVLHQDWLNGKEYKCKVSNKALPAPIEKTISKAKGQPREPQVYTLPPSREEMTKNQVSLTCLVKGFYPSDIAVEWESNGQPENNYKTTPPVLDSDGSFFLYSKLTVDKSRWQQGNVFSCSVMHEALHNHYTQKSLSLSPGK
light: B1 light with S91T, Y92L
notes: PTM variant of PR006895 (human IgG1)
B3: Fc-tagged human CD200 protein (Fc fusion)
chain: QVQVVTQDEREQLYTPASLKCSLQNAQEALIVTWQKKKAVSPENMVTFSENHGVVIQPAYKDKINITQLGLQNSTITFWNITLEDEGCYMCLFNTFGFGKISGTACLTVYVQPIVSLHYKFSEDHLNITCSATARPAPMVFWKVPRSGIENSTVTLSHPNGTTSVTSILHIKDPKNQVGKEVICQVLHLGTVTDFKQTVNKG
notes: also called hCD200; not shown: Fc tag
B4: PR006207 (antibody, human IgG1, kappa, L234A L235A, V domains shown)
VH: QVQLVQSGAEVKKPGASVKVSCKASGFSFSSGYYMAWVRQAPGQGLEWMGLIGVGSGSLWYAQKFQGRVTMTRDTSTSTVYMELSSLRSEDTAVYYCARHFALSDPFNLWGQGTLVTVSS
VL: EIVLTQSPDFQSVTPKEKVTITCQASESIDSYLLWYQQKPDQSPKLLIKQASTLASGVPSRFSGSGSGTDFTLTINSLEAEDAATYYCQNYYDISSNDFGGGTKVEIKR
notes: also called recombinant antibody of I-4P
B5: Cyno CD200R1a-His (receptor)
chain: EGAAQSNNSLMLQTSKENHTLASNSLCMDEKQITQNHSKVLAEVNISWPVQMARNAVLCCPPIEFRNLIVITWEIILRGQPSCTKTYRKDTNETKETNCTDERITWVSTPDQNSDLQIHPVAITHDGYYRCIMATPDGNFHRGYHLQVLVTPEVTLFESRNRTAVCKAVAGKPAAQISWIPAGDCAPTEQEYWGNGTVTVKSTCHWEGHNVSTVTCHVSHLTGNKSLYIELLPVPGAKKSAK
notes: Soluble protein used in BLI; also called Cynomolgus macaques CD200R1a recombinant protein; not shown: His tag

Columns and labels:
[1] = molecular target: T1, human CD200R1 isoform a on CHOK1 cells …; experiment: flow cytometry, CHOK1/hCD200R1a cells (FITC-Mean); table beside the curves
Protocol: This example is intended to investigate the in vitro binding activity of human anti-CD200R1 monoclonal antibodies to human/Cynomolgus macaques CD200R1a expressed on the surface of cells. The anti-CD200R1 antibodies were produced as described in Example 3.4 and the binding experiments at the cell level were performed using CHOK1/hCD200R1a and CHOK1-cynoCD200R1a.
Briefly, CHOK1/hCD200R1a cells and CHOK1-cynoCD200R1a cells were digested, and collected, and then were resuspended in PBS containing 2% BSA, respectively. The cell density was adjusted to 1×10⁶ cells/mL. The cells were seeded in a 96-well V-bottom plate (Corning, #3894) at 100 μL/well, followed by the addition of test antibodies and reference antibodies in a series diluted concentration, each at 100 μL/well. The cells were incubated away from light at 4° C. for 1 h. Thereafter, the cells in each well were rinsed twice with 100 μL of pre-cooled PBS containing 2% BSA, and centrifuged at 500 g at 4° C. for 5 min, and then the supernatant was discarded. 100 μL of fluorescent secondary antibody (Alexa Fluor 488-conjugated AffiniPure Goat Anti-Human IgG, Fcγ Fragment Specific, Jackson, #109-545-098, diluted in a 1:1000 ratio) was added in each well, and the plate was incubated away from light at 4° C. for 1 h. The cells in each well were rinsed twice with 100 μL of pre-cooled PBS containing 2% BSA, and centrifuged at 500 g at 4° C. for 5 min, and then the supernatant was discarded. Finally, the cells in each well were resuspended in 200 μL of pre-cooled PBS containing 2% BSA, and the fluorescence signal values were read using a BD CantoII flow cytometer.

[2] = molecular target: T1, human CD200R1 isoform a on CHOK1 cells …; experiment: flow cytometry blocking assay: antibody titrated against biotin-labelled human CD200 binding to CHOK1/hCD200R1a cells; head prints EC50 without unit, x axis Log [Ab] (nM), y axis Inhibition %
Protocol: (§1) In brief, CHOK1/hCD200R1a cells were digested and resuspended in 2% BSA in PBS. […] The cells were placed at 4° C. and incubated for 1 hour in the dark. […] 100 μL/well of pre-cooled PBS containing 2% BSA was added to rinse the cells twice, centrifugation was performed at 500 g, 4° C. for 5 minutes, and the supernatant was discarded. Fluorescent secondary antibody (PE Streptavidin, BD, Cat #: 554061, 1:200) was added at 100 μL/well, and incubation was performed at 4° C. for 30 minutes in the dark. The cells were washed twice with 200 μL/well of pre-cooled PBS, and were centrifuged at 500 g, 4° C. for 5 minutes, and the supernatant was discarded. Finally, 200 μL/well of pre-cooled PBS was used to resuspend the cells, and the fluorescence signal values were read using ACEA Novocyte 3000 flow cytometer. IC50 values were calculated.

[3] = molecular target: T2, CD200R1a on PathHunter Jurkat CD200R1a …; experiment: cell-based or functional assay
[4] = molecular target: T3, Cynomolgus macaques CD200R1 isoform a …; experiment: flow cytometry, CHOK1/cynoCD200R1a cells (APC-A Mean); table beside the curves
[5] = molecular target: T1, human CD200R1 isoform a on CHOK1 cells …; experiment: flow cytometry blocking assay: biotin-labelled human CD200 binding to CHOK1/hCD200R1a cells; y axis Inhibition %
Protocol: as §1

[6] = molecular target: T1, human CD200R1 isoform a on CHOK1 cells …; experiment: flow cytometry, CHOK1/hCD200R1a cells (FITC-Mean); table beside the curves, head without unit, x axis Log [Ab] (nM)
[7] = molecular target: T2, CD200R1a on PathHunter Jurkat CD200R1a …; experiment: cell-based or functional assay; remark: listed apart in the source
[8] = molecular target: T4, human CD200R1a protein (soluble …); experiment: BLI (Octet), Fc-tagged hCD200 captured on anti-human Fc sensor, soluble CD200R1a as analyte, 1:1 fit
[9] = molecular target: T4, human CD200R1a protein (soluble …); experiment: BLI in-tandem competition on His-captured human CD200R1a; row = 1st Ab (400 nM); competitor (2nd Ab) PR007223
Protocol: (§2) To determine if the anti-CD200R1 antibodies bind to human CD200R1a on different or approximate binding epitopes, epitope competition experiments for the anti-CD200R1 antibodies were performed by the ForteBlio Octet® RED96e platform. […] The in-tandem competition assay format was applied, and it contained two association steps. Firstly, the antigen-loaded biosensors bound to each antibody (i.e., First antibody, 1st Ab) at a saturating concentration of 400 nM for 300 seconds to reach equilibrium and then secondly bound to the competing antibodies (i.e., Second antibody, 2nd Ab) of 400 nM for 300 seconds. The second binding signals are recorded as the 100% signal of each antibody when the first antibodies are replaced by kinetic buffer. All the binding data were analyzed using ForteBlio Data Analysis 11.0 software. The inhibition rate was calculated by the following formula: […]

[10] = molecular target: T4, human CD200R1a protein (soluble …); experiment: BLI in-tandem competition on His-captured human CD200R1a; row = 1st Ab (400 nM); competitor (2nd Ab) PR006207
Protocol: as §2

[11] = molecular target: T4, human CD200R1a protein (soluble …); experiment: BLI in-tandem competition on His-captured human CD200R1a; row = 1st Ab (400 nM); competitor (2nd Ab) PR007221
Protocol: as §2

[12] = molecular target: T4, human CD200R1a protein (soluble …); experiment: BLI in-tandem competition on His-captured human CD200R1a; row = 1st Ab (400 nM); competitor (2nd Ab) PR007973
Protocol: as §2

[13] = molecular target: B3; experiment: BLI (Octet), Fc-tagged hCD200 captured on anti-human Fc sensor, soluble CD200R1a as analyte, 1:1 fit

| Binder | MFI(Max) [1] | EC50 [2] | EC50 [4] | MFI (MAX) [4] | Blocking(Max) [5] | EC50 [6] | IC50 of the inhibition of CD200-induced PathHunter Jurkat CD200R1a luminescence (CHOK1/hCD200 cells as CD200 source) [7] | also measured |
| --- | --- | --- | --- | --- | --- | --- | --- | --- |
| B1 | 8410 | 0.339 nM | 20.5 nM | 33400 | 49.8% | 0.172 nM | 0.988 nM | IC50 of the inhibition of CD200-induced PathHunter Jurkat CD200R1a luminescence (CHOK1/hCD200 cells as CD200 source) [3]: 0.886 nM |
| B2 | 8850 | 0.19 nM | 6.86 nM | 50100 | 80% | 0.108 nM | 0.844 nM | – |
| B3 | – | – | – | – | – | – | – | Kd [8]: 77.1 nM; koff [8]: 0.0177 s⁻¹; kon [8]: 230000 M⁻¹ s⁻¹ |
| B4 | – | – | – | – | – | – | – | Inhibition ratio (%) [9]: -38.6%; Inhibition ratio (%) [10]: 97.6%; Inhibition ratio (%) [11]: -36.2%; Inhibition ratio (%) [12]: -39.9% |
| B5 | – | – | – | – | – | – | – | Kd [13]: 197 nM; koff [13]: 0.0316 s⁻¹; kon [13]: 161000 M⁻¹ s⁻¹ |
